# Data from PMC9512828.
# B1: PTH1R-WT coupled to a C-terminal HaloTag (parathyroid hormone 1 receptor) [not stated] / β-arrestin2-dFLR (finger-loop region Y64 to K78 deleted) C-terminally fused to Nanoluciferase [not stated] (parent)
# chain 1: MGEKPGTRVFKKSSPNCKLTVYLGKRDFVDHLDKVDPVDGVVLVDPDYLKDRKVFVTLTCAFRDLFIANYQAFPPTPNPPRPPTRLQERLLRKLGQHAHPFFFTIPQNLPCSVTLQPGPEDTGKACGVDFEIRAFCAKSLEEKSHKRNSVRLVIRKVQFAPEKPGPQPSAETTRHFLMSDRSLHLEASLDKELYYHGEPLNVNVHVTNNSTKTVKKIKVSVRQYADICLFSTAQYKCPVAQVEQDDQVSPSSTFCKVYTITPLLSNNREKRGLALDGKLKHEDTNLASSTIVKEGANKEVLGILVSYRVKVKLVVSRGGDVSVELPFVLMHPKPHDHIALPRPQSAATHPPTLLPSAVPETDAPVDTNLIEFETNYATDDDIVFEDFARLRLKGLKDEDYDDQFC
# chain 2: DADDVMTKEEQIFLLHRAQAQCEKRLKEVLQRPASIMESDKGWTSASTSGKPRKDKASGKLYPESEEDKEAPTGSRYRGRPCLPEWDHILCWPLGAPGEVVAVPCPDYIYDFNHKGHAYRRCDRNGSWELVPGHNRTWANYSECVKFLTNETREREVFDRLGMIYTVGYSVSLASLTVAVLILAYFRRLHCTRNYIHMHLFLSFMLRAVSIFVKDAVLYSGATLDEAERLTEEELRAIAQAPPPPATAAAGYAGCRVAVTFFLYFLATNYYWILVEGLYLHSLIFMAFFSEKKYLWGFTVFGWGLPAVFVAVWVSVRATLANTGCWDLSSGNKKWIIQVPILASIVLNFILFINIVRVLATKLRETNAGRCDTRQQYRKLLKSTLVLMPLFGVHYIVFMATPYTEVSGTLWQVQMHYEMLFNSFQGFFVAIIYCFCNGEVQAEIKKSWSRWTLALDFKRKARSGSSSYSYGPMVSHTSVTNVGPRVGLGLPLSPRLLPTATTNGHPQLPGHAKPGTPALETLETTPPAMAAPKDDGFLNGSCSGLDEEASGPERPPALLQEEWETVM
# B2: PTH1R-WT coupled to a C-terminal HaloTag (parathyroid hormone 1 receptor) [not stated] / β-arrestin2 WT C-terminally fused to Nanoluciferase [not stated] (parent)
# chain 1: MGEKPGTRVFKKSSPNCKLTVYLGKRDFVDHLDKVDPVDGVVLVDPDYLKDRKVFVTLTCAFRYGREDLDVLGLSFRKDLFIANYQAFPPTPNPPRPPTRLQERLLRKLGQHAHPFFFTIPQNLPCSVTLQPGPEDTGKACGVDFEIRAFCAKSLEEKSHKRNSVRLVIRKVQFAPEKPGPQPSAETTRHFLMSDRSLHLEASLDKELYYHGEPLNVNVHVTNNSTKTVKKIKVSVRQYADICLFSTAQYKCPVAQVEQDDQVSPSSTFCKVYTITPLLSNNREKRGLALDGKLKHEDTNLASSTIVKEGANKEVLGILVSYRVKVKLVVSRGGDVSVELPFVLMHPKPHDHIALPRPQSAATHPPTLLPSAVPETDAPVDTNLIEFETNYATDDDIVFEDFARLRLKGLKDEDYDDQFC
# chain 2: B1 chain 2
# Variants of: B1
# Assay: NanoBRET recruitment assay in living cells
# Conditions: with β-arrestin2-dFLR (finger-loop region Y64 to K78 deleted) C-terminally fused to Nanoluciferase; HEK-WT + EV; point at the highest PTH(1-34) concentration (about 3 µM); partner is β-arrestin2-dFLR; parent: 1.4; read off a plot
row,response [fold change],Variant
1,0.95,chain 2 DADDVMTKEEQIFLLHRAQAQCEKRLKEVLQRPASIMESDKGWTSASTSGKPRKDKASGKLYPESEEDKEAPTGSRYRGRPCLPEWDHILCWPLGAPGEVVAVPCPDYIYDFNHKGHAYRRCDRNGSWELVPGHNRTWANYSECVKFLTNETREREVFDRLGMIYTVGYSVSLASLTVAVLILAYFRRLHCTRNYIHMHLFLSFMLRAVSIFVKDAVLYSGATLDEAERLTEEELRAIAQAPPPPATAAAGYAGCRVAVTFFLYFLATNYYWILVEGLYLHSLIFMAFFSEKKYLWGFTVFGWGLPAVFVAVWVSVRATLANTGCWDLSSGNKKWIIQVPILASIVLNFILFINIVRVLATKLRETNAGRCDTRQQYRKLLKSTLVLMPLFGVHYIVFMATPYTEVSGTLWQVQMHYEMLFNSFQGFFVAIIYCFCNGEVQAEIKKSWSRWTLALDFKRKARSGSSSYSYGPMVAHAAVANVGPRVGLGLPLSPRLLPTATTNGHPQLPGHAKPGTPALETLETTPPAMAAPKDDGFLNGSCSGLDEEASGPERPPALLQEEWETVM [chain 2 S475A T477A S478A T480A]

# Same assay, conditions: with β-arrestin2-dFLR (finger-loop region Y64 to K78 deleted) C-terminally fused to Nanoluciferase; ΔQ-GRK + EV; point at the highest PTH(1-34) concentration (about 3 µM); partner is β-arrestin2-dFLR; parent: 1; read off a plot
row,response [fold change],Variant
1,0.95,chain 2 DADDVMTKEEQIFLLHRAQAQCEKRLKEVLQRPASIMESDKGWTSASTSGKPRKDKASGKLYPESEEDKEAPTGSRYRGRPCLPEWDHILCWPLGAPGEVVAVPCPDYIYDFNHKGHAYRRCDRNGSWELVPGHNRTWANYSECVKFLTNETREREVFDRLGMIYTVGYSVSLASLTVAVLILAYFRRLHCTRNYIHMHLFLSFMLRAVSIFVKDAVLYSGATLDEAERLTEEELRAIAQAPPPPATAAAGYAGCRVAVTFFLYFLATNYYWILVEGLYLHSLIFMAFFSEKKYLWGFTVFGWGLPAVFVAVWVSVRATLANTGCWDLSSGNKKWIIQVPILASIVLNFILFINIVRVLATKLRETNAGRCDTRQQYRKLLKSTLVLMPLFGVHYIVFMATPYTEVSGTLWQVQMHYEMLFNSFQGFFVAIIYCFCNGEVQAEIKKSWSRWTLALDFKRKARSGSSSYSYGPMVAHAAVANVGPRVGLGLPLSPRLLPTATTNGHPQLPGHAKPGTPALETLETTPPAMAAPKDDGFLNGSCSGLDEEASGPERPPALLQEEWETVM [chain 2 S475A T477A S478A T480A]

# Same assay, conditions: with β-arrestin2-dFLR (finger-loop region Y64 to K78 deleted) C-terminally fused to Nanoluciferase; ΔQ-GRK + GRK2; point at the highest PTH(1-34) concentration (about 3 µM); partner is β-arrestin2-dFLR; parent: 1.3; read off a plot
row,response [fold change],Variant
1,0.95,chain 2 DADDVMTKEEQIFLLHRAQAQCEKRLKEVLQRPASIMESDKGWTSASTSGKPRKDKASGKLYPESEEDKEAPTGSRYRGRPCLPEWDHILCWPLGAPGEVVAVPCPDYIYDFNHKGHAYRRCDRNGSWELVPGHNRTWANYSECVKFLTNETREREVFDRLGMIYTVGYSVSLASLTVAVLILAYFRRLHCTRNYIHMHLFLSFMLRAVSIFVKDAVLYSGATLDEAERLTEEELRAIAQAPPPPATAAAGYAGCRVAVTFFLYFLATNYYWILVEGLYLHSLIFMAFFSEKKYLWGFTVFGWGLPAVFVAVWVSVRATLANTGCWDLSSGNKKWIIQVPILASIVLNFILFINIVRVLATKLRETNAGRCDTRQQYRKLLKSTLVLMPLFGVHYIVFMATPYTEVSGTLWQVQMHYEMLFNSFQGFFVAIIYCFCNGEVQAEIKKSWSRWTLALDFKRKARSGSSSYSYGPMVAHAAVANVGPRVGLGLPLSPRLLPTATTNGHPQLPGHAKPGTPALETLETTPPAMAAPKDDGFLNGSCSGLDEEASGPERPPALLQEEWETVM [chain 2 S475A T477A S478A T480A]

# Variants of: B2
# Assay: NanoBRET recruitment assay in living cells
# Conditions: with β-arrestin2 WT C-terminally fused to Nanoluciferase; HEK-WT + EV; point at the highest PTH(1-34) concentration (about 3 µM); parent: 7.5; read off a plot
row,response [fold change],Variant
1,3.4,chain 2 DADDVMTKEEQIFLLHRAQAQCEKRLKEVLQRPASIMESDKGWTSASTSGKPRKDKASGKLYPESEEDKEAPTGSRYRGRPCLPEWDHILCWPLGAPGEVVAVPCPDYIYDFNHKGHAYRRCDRNGSWELVPGHNRTWANYSECVKFLTNETREREVFDRLGMIYTVGYSVSLASLTVAVLILAYFRRLHCTRNYIHMHLFLSFMLRAVSIFVKDAVLYSGATLDEAERLTEEELRAIAQAPPPPATAAAGYAGCRVAVTFFLYFLATNYYWILVEGLYLHSLIFMAFFSEKKYLWGFTVFGWGLPAVFVAVWVSVRATLANTGCWDLSSGNKKWIIQVPILASIVLNFILFINIVRVLATKLRETNAGRCDTRQQYRKLLKSTLVLMPLFGVHYIVFMATPYTEVSGTLWQVQMHYEMLFNSFQGFFVAIIYCFCNGEVQAEIKKSWSRWTLALDFKRKARSGSSSYSYGPMVAHAAVANVGPRVGLGLPLSPRLLPTATTNGHPQLPGHAKPGTPALETLETTPPAMAAPKDDGFLNGSCSGLDEEASGPERPPALLQEEWETVM [chain 2 S475A T477A S478A T480A]

# Same assay, conditions: with β-arrestin2 WT C-terminally fused to Nanoluciferase; HEK-WT cells; point at the highest PTH(1-34) concentration (about 3 µM); parent: 7.3; read off a plot
row,response [fold change],Variant
1,3.4,chain 2 DADDVMTKEEQIFLLHRAQAQCEKRLKEVLQRPASIMESDKGWTSASTSGKPRKDKASGKLYPESEEDKEAPTGSRYRGRPCLPEWDHILCWPLGAPGEVVAVPCPDYIYDFNHKGHAYRRCDRNGSWELVPGHNRTWANYSECVKFLTNETREREVFDRLGMIYTVGYSVSLASLTVAVLILAYFRRLHCTRNYIHMHLFLSFMLRAVSIFVKDAVLYSGATLDEAERLTEEELRAIAQAPPPPATAAAGYAGCRVAVTFFLYFLATNYYWILVEGLYLHSLIFMAFFSEKKYLWGFTVFGWGLPAVFVAVWVSVRATLANTGCWDLSSGNKKWIIQVPILASIVLNFILFINIVRVLATKLRETNAGRCDTRQQYRKLLKSTLVLMPLFGVHYIVFMATPYTEVSGTLWQVQMHYEMLFNSFQGFFVAIIYCFCNGEVQAEIKKSWSRWTLALDFKRKARSGSSSYSYGPMVAHAAVANVGPRVGLGLPLSPRLLPTATTNGHPQLPGHAKPGTPALETLETTPPAMAAPKDDGFLNGSCSGLDEEASGPERPPALLQEEWETVM [chain 2 S475A T477A S478A T480A]

# Same assay, conditions: with β-arrestin2 WT C-terminally fused to Nanoluciferase; ΔQ-GRK + EV; point at the highest PTH(1-34) concentration (about 3 µM); parent: 1.7; read off a plot
row,response [fold change],Variant
1,1.9,chain 2 DADDVMTKEEQIFLLHRAQAQCEKRLKEVLQRPASIMESDKGWTSASTSGKPRKDKASGKLYPESEEDKEAPTGSRYRGRPCLPEWDHILCWPLGAPGEVVAVPCPDYIYDFNHKGHAYRRCDRNGSWELVPGHNRTWANYSECVKFLTNETREREVFDRLGMIYTVGYSVSLASLTVAVLILAYFRRLHCTRNYIHMHLFLSFMLRAVSIFVKDAVLYSGATLDEAERLTEEELRAIAQAPPPPATAAAGYAGCRVAVTFFLYFLATNYYWILVEGLYLHSLIFMAFFSEKKYLWGFTVFGWGLPAVFVAVWVSVRATLANTGCWDLSSGNKKWIIQVPILASIVLNFILFINIVRVLATKLRETNAGRCDTRQQYRKLLKSTLVLMPLFGVHYIVFMATPYTEVSGTLWQVQMHYEMLFNSFQGFFVAIIYCFCNGEVQAEIKKSWSRWTLALDFKRKARSGSSSYSYGPMVAHAAVANVGPRVGLGLPLSPRLLPTATTNGHPQLPGHAKPGTPALETLETTPPAMAAPKDDGFLNGSCSGLDEEASGPERPPALLQEEWETVM [chain 2 S475A T477A S478A T480A]

# Same assay, conditions: with β-arrestin2 WT C-terminally fused to Nanoluciferase; ΔQ-GRK + GRK2; point at the highest PTH(1-34) concentration (about 3 µM); parent: 5; read off a plot
row,response [fold change],Variant
1,3.2,chain 2 DADDVMTKEEQIFLLHRAQAQCEKRLKEVLQRPASIMESDKGWTSASTSGKPRKDKASGKLYPESEEDKEAPTGSRYRGRPCLPEWDHILCWPLGAPGEVVAVPCPDYIYDFNHKGHAYRRCDRNGSWELVPGHNRTWANYSECVKFLTNETREREVFDRLGMIYTVGYSVSLASLTVAVLILAYFRRLHCTRNYIHMHLFLSFMLRAVSIFVKDAVLYSGATLDEAERLTEEELRAIAQAPPPPATAAAGYAGCRVAVTFFLYFLATNYYWILVEGLYLHSLIFMAFFSEKKYLWGFTVFGWGLPAVFVAVWVSVRATLANTGCWDLSSGNKKWIIQVPILASIVLNFILFINIVRVLATKLRETNAGRCDTRQQYRKLLKSTLVLMPLFGVHYIVFMATPYTEVSGTLWQVQMHYEMLFNSFQGFFVAIIYCFCNGEVQAEIKKSWSRWTLALDFKRKARSGSSSYSYGPMVAHAAVANVGPRVGLGLPLSPRLLPTATTNGHPQLPGHAKPGTPALETLETTPPAMAAPKDDGFLNGSCSGLDEEASGPERPPALLQEEWETVM [chain 2 S475A T477A S478A T480A]
